B1: 2K2A (parent)
chain: ELREAFRLYDKEGNGYISTDVMREILAELDETLSSEDLDAMIDEIDADGSGTVDFEEFMGVMT

Variants of: B1
Assay: folding stability dG (cDNA display proteolysis); higher = more stable
Conditions: PBS, room temperature

Folding stability dG [kcal/mol], by site and new letter:
I45: R 0.158 | S 0.36 | T 0.714 | V 1.57 | W 1.32 | Y 1.05
D46: A 0.858 | C 0.854 | E 0.581 | F 0.726 | G 0.581 | H 0.812 | I 0.796 | K 0.845 | L 0.716 | M 0.648 | N 1.46 | P -0.155 | Q 0.665 | R 0.799 | S 0.962 | T 0.826 | V 0.984 | W 0.628 | Y 0.647
A47: C 1.97 | D 1.06 | E 1.4 | F 1.69 | G 1.57 | H 1.96 | I 1.86 | K 2.2 | L 1.78 | M 1.64 | N 1.62 | P 1.92 | Q 1.93 | R 2.06 | S 1.8 | T 1.84 | V 1.91 | W 1.96 | Y 1.62
D48: A 1.48 | C 1.4 | E 1.48 | F 1.39 | G 1.37 | H 1.51 | I 1.24 | K 1.57 | L 1.38 | M 1.33 | N 1.84 | P 0.465 | Q 1.31 | R 1.52 | S 1.57 | T 1.6 | V 1.18 | W 1.24 | Y 1.3
G49: A 1.5 | C 1.71 | D 1.42 | E 1.26 | F 1.01 | H 1.94 | I 0.499 | K 1.99 | L 1.29 | M 1.43 | N 1.84 | P 0.091 | Q 1.77 | R 1.95 | S 1.63 | T 0.928 | V 0.799 | W 0.635 | Y 1.04
S50: A 1.11 | C 1.39 | D 1.33 | E 0.94 | F 0.991 | G 1.05 | H 1.16 | I 1.14 | K 1.78 | L 1.22 | M 1.29 | N 1.67 | P 0.13 | Q 1.12 | R 1.61 | T 1.88 | V 1.18 | W 0.737 | Y 1.05
G51: A 0.849 | C 0.991 | D 0.686 | E 0.622 | F 0.853 | H 1.39 | I 0.064 | K 1.27 | L 0.92 | M 1.15 | N 1.18 | P -0.745 | Q 1.01 | R 1.35 | S 0.834 | T 0.424 | V 0.029 | W 0.564 | Y 0.517
T52: A 1.11 | C 1.15 | D 0.729 | E 1.28 | F 1.53 | G 1.02 | H 1.69 | I 1.64 | K 1.74 | L 1.65 | M 1.74 | N 1.49 | P -0.373 | Q 1.68 | R 1.87 | S 1.45 | V 1.55 | W 1.31 | Y 1.52
V53: A 0.162 | C 0.799 | F 1.07 | G -0.308 | H 0.004 | I 2.37 | K -0.419 | L 1.58 | M 0.875 | P -0.828 | Q -0.515 | R -0.087 | S 0.029 | T -0.067 | W 0.916 | Y 0.679
D54: A 1.78 | C 1.51 | E 1.33 | F 1.79 | G 2.07 | H 1.68 | I 1.27 | K 1.57 | L 1.43 | M 1.76 | N 2.26 | P 1.14 | Q 1.63 | R 1.73 | S 2.43 | T 2.36 | V 1.38 | W 1.72 | Y 2
F55: A 0.686 | C 0.683 | D -0.867 | E 1.33 | G -0.263 | H 0.24 | I 1.47 | K 0.132 | L 1.66 | M 1.31 | N -0.55 | P -0.144 | Q 0.578 | R 0.375 | S 0.161 | T 0.148 | V 1.32 | W 1.75 | Y 1.88
E56: A 1.78 | C 1.92 | D 1.84 | F 2.04 | G 1.56 | H 1.88 | I 1.87 | K 1.77 | L 1.88 | M 1.64 | N 1.86 | P 1.21 | Q 1.9 | R 1.78 | S 1.75 | T 1.69 | V 1.75 | W 1.99 | Y 2.02
E57: A 2.47 | C 2.01 | D 1.72 | F 1.47 | G 2.33 | H 2.18 | I 1.97 | K 2.58 | L 1.9 | M 2.37 | N 2 | P 0.106 | Q 2.48 | R 2.48 | S 2.39 | T 2.46 | V 2.26 | W 1.55 | Y 1.58
F58: A 0.332 | C 0.529 | E -0.986 | I 0.406 | L 0.779 | M 0.426 | N -0.854 | Q -0.946 | T -0.411 | V 0.336 | W 1.69 | Y 1.6
M59: A 2.04 | C 1.7 | D 0.144 | E 1.41 | F 2.03 | G 0.537 | H 1.2 | I 2.03 | K 1.81 | L 1.91 | N 0.889 | P -0.961 | Q 1.65 | R 1.96 | S 1.77 | T 1.49 | V 2.18 | W 1.4 | Y 2.02
G60: A 2.53 | C 2.25 | D 1.75 | E 1.85 | F 2.49 | H 2.48 | I 2.39 | K 2.69 | L 2.46 | M 2.5 | N 2.15 | P 0.712 | Q 2.32 | R 2.82 | S 2.29 | T 2.37 | V 2.13 | W 2.79 | Y 2.57
V61: A 2.2 | C 1.86 | D -0.74 | E 0.207 | F 2.75 | G 1.49 | H 1.67 | I 2.12 | K 1.32 | L 2.06 | M 1.83 | N 0.566 | P 0.265 | Q 0.902 | R 1.16 | S 1.26 | T 1.21 | W 3.03 | Y 2.69
M62: A 0.857 | C 1.81 | D 0.171 | E -0.063 | F 2.04 | G 0.514 | H 0.762 | I 1.48 | K 0.674 | L 1.5 | N 0.258 | P 0.128 | Q 0.539 | R 0.711 | S 0.277 | T 0.559 | V 1.34 | W 1.83 | Y 1.58
T63: A 1.97 | C 2.18 | D 1.26 | E 1.66 | F 1.56 | G 1.85 | H 1.76 | I 2.07 | K 1.97 | L 2.25 | M 2.17 | N 1.82 | P 1 | Q 1.83 | R 1.94

— the MegaScale stability set (Tsuboyama et al. 2023)
